The series is described as follows: soluble on expression in E. coli; label from the status in PepcDB or PDB records.
Consider “PLSEAELALFDPYSKEESTGPSPTHTGELAAIEVESKRLDQEPWEPGGQEEEEAEDGEPAPAYLGQATELITQALRNEKAGAYAAALQGYQDGVHILLQGVSGDPSPARREGVKKKAAEYLKRAEMLHTHLP”, for which the “soluble on expression in E. coli” value is given as “soluble”.
With “MQMLDRLESEILADRVSEESRRWLASCGLTVEQMKNQMDPVYTPARKIHLYHCDHRGLPLALISTEGATAWCAEYDEWGNLLSDENPHHLQQLIRLPGQQYDEESGLYYNRHRYYDPLLGRYITQDPIGLKGGWNFYQYPLNPVINVDPQGLVDINLYPESDLIHSVADEINIPGVFTIGGHGTPTSIESATRSIMTAKDLAYLIKFDGNYKDGMTVWLFSCNTGKGQNSFASLEHHHHHH” the entry was “not soluble”; with “PSRPVRPNNRCFSCNKKVGVMGFKCKCGSTFCGSHRYPEKHECSFDFKEVG”, “soluble”; with “MMNSIKFIFLGDVYGKAGRNIIKNNLAQLKSKYQADLVIVNAENTTHGKGLSLKHYEFLKEAGVNYITMGNHTWFQKLDLAVVINKKDLVRPLNLDTSFAFHNLGQGSLVFEFNKAKIRITNLLGTSVPLPFKTTNPFKVLKELILKRDCDLHIVDFHAETTSEKNAFCMAFDGYVTTIFGTHTHVPSADLRITPKGSAYITDVGMCGPGFGSVIGANPEQSIRLFCAGSREHFEVSKCGAQLNGVFFEVDVNTKKVIKTEAIRIVEDDPRYLKQDYFNLI”, “soluble”.
With “MIWNEHHECMGRDQLASLQGERLRQMVERIYYNVPFYRNKLQEMGIEPGDIRSIDDLKKLPFTTKQDLRDNYPFGLFAVPQQDIVRFHASSGTTGKSTVVGYTHNDIMMWSEVVARSLTMAGVTKHDIIQVAYGYGLFTGGLGLHYGAEKIGASVIPISGGNTKKQLQLLEDFGSTAIACTPSYAAYLGEAIMEEKLDRSKIKLKAGIFGAEPWTEEMRSQIQQLLGIKAYDIYGLSEVIGPGVSMECSIQHGMHVFEDHFIPEIINPETGEVLPYGELGELVFTAVTKEALPLLRYRTRDLTRLHVERCDCGRTLVRMEKCVGRSDDMLIIRGVNVFPSQVESVLLEMSETKPHYLLVVDRQNNLDTLEIQVEVEDQFFSDEVKELEGLRKRISGNLTSILGLHANVRLVEPGTIERSQGKAQRVVDKRKLNEHKETP” the entry was “not soluble”.
For “MGSDKIHHHHHHMENAPEPIETVKKGKCKVECQNKERFILIEKENGKAMYHTKIMMDIYKFGVYEKKHEFRLSLRALFNGERIVEETHLYPIKEGDKFIGIFYGYRKPIKKPLIKYQINGTKKAYALARAYYMEFRFKAGSVFCYFKGLYRLLDKKRTNNHYNKVLFSMFTDLEQQVYKFYGKKYPEQGPLIKWILKNLK”, the “soluble on expression in E. coli” value is listed as “not soluble”.
Then “MVYDLIVIGGGSGGMAAARRAARHNAKVALVEKSRLGGTCVNVGCVPKKIMFNAASVHDILENSRHYGFDTKFSFNLPLLVERRDKYIQRLNNIYRQNLSKDKVDLYEGTASFLSENRILIKGTKDNNNKDNGPLNEEILEGRNILIAVGNKPVFPPVKGIENTISSDEFFNIKESKKIGIVGSGYIAVELINVIKRLGIDSYIFARGNRILRKFDESVINVLENDMKKNNINIVTFADVVEIKKVSDKNLSIHLSDGRIYEHFDHVIYCVGRSPDTENLKLEKLNVETNNNYIVVDENQRTSVNNIYAVGDCCMVKKSKEIEDLNLLKLYNEERYLNKKENVTEDIFYNVQLTPVAINAGRLLADRLFLKKTRKTNYKLIPTVIFSHPPIGTIGLSEEAAIQIYGKENVKIYESKFTNLFFSVYDIEPELKEKTYLKLVCVGKDELIKGLHIIGLNADEIVQGFAVALKMNATKKDFDETIPIHPTAAEEFLTLQPWMK”, with “soluble”.
Consider “MVVGVAGYYGFRNAGDEAILEAIARELKARGHEVVALSGDPKRTREDHGLRAYHRLNPLALLRADLWLLGGGGLLQDATSALSLTYYLSVLRLARLFRKRVVVFNQSLGPLSPWGERRVRKALQGVPVILRDQDSLEYARRLGIPAALGADPALLLPPPPVPREEDLVLVIPRAGVREEALTTLYVAANHLVHEGKQVLVLLLQPGYDDEVAEVFRLHRIERTSDPRRLLYLAAQAGYVISMRLHGLILAAAAGTPFAALSYDPKVAAFAKETGAYYQELPGEPIKLYKAALYGRFPDWEKVARLKERARQSFDLALGEGVPIKGSGRG”, for which the “soluble on expression in E. coli” value is given as “soluble”.
With “MSLRVADLLQHINLMKTSDSYGFKEEYESFFEGQSASWDVAKKDQNRAKNRYGNIIAYDHSRVILQPVEDDPSSDYINANYIDGYQRPSHYIATQGPVHETVYDFWRMIWQEQSACIVMVTNLVEVGRVKCYKYWPDDTEVYGDFKVTCVEMEPLAEYVVRTFTLERRGYNEIREVKQFHFTGWPDHGVPYHATGLLSFIRRVKLSNPPSAGPIVVHCSAGAGRTGCYIVIDIMLDMAEREGVVDIYNCVKALRSRRINMVQTEEQYIFIHDAILEACLCGETAIPVCEFKAAYFDMIRIDSQTNSSHLKDEFQTLNSVTPRLQAEDCSIACLPRNHDKNRFMDMLPPDRCLPFLITIDGESSNYINAALMDSYRQPAAFIVTQYPLPNTVKDFWRLVYDYGCTSIVMLNEVDLSQGCPQYWPEEGMLRYGPIQVECMSCSMDCDVINRIFRICNLTRPQEGYLMVQQFQYLGWASHREVPGSKRSFLKLILQVEKWQEECEEGEGRTIIHCLNGGGRSGMFCAIGIVVEMVKRQNVVDVFHAVKTLRNSKPNMVEAPEQYRFCYDVALEYLESSEGHHHHHH” the entry was “soluble”.
With “MFKKIATILGSTLFGTVLFAKVKEKRSYKSFLQEKMIRISGMKKTFESIDDAKKALNETKYQTAGKYNGTTYEFKHKVQIRDYYGSLVYVVNDHGLPDQRTVLYVHGGAWFQDPLENHFEYLDLLVDALDARVIMPVYPKIPHRDYRTTFELLTKIYKRLLTKIDEPENLVIIGDSAGGQIALAFAQMLKKEQLSQPGHIVLISPVLDATFKNPEARKYEKEDPMLGIDGSKYLVELWAGDAPLDDYKMSPMNGDLEGLGHITLTVGTKETLYPDAVKFSHMLNDKGIKHQFIPGYNLFHIYPLFPIPERQRFLEQLKKIIVTKEL” the entry was “not soluble”; with “MIQIAIAGSSDEKPLEVAVRKTKEFIKALPSDVILMTGGRGGIMEVASEEFRKKGGIVVGILPYSDNGNRFNTVRVKTGLNPVERSGVLIESADVLVVLGGGVGTMIEALMAYNLGIPVIVITGTGYASDRLMELAKEGYFDHKRIVKVIFTDDPKEAAKLALKIGGERSEARDI”, “soluble”.
As for “MARGLNRVFLIGALATRPDMRYTPAGLAILDLTLAGQDLLLSDNGGEREVSWYHRVRLLGRQAEMWGDLLDQGQLVFVEGRLEYRQWEREGERRSELQIRADFLDPLDDRGKERAEDSRGQPRLRAALNQVFLMGNLTRDPELRYTPQGTAVARLGLAVNERRQGAEERTHFVEVQAWRDLAEWAAELRKGDGLFVIGRLVNDSWTSSSGERRFQTRVEALRLERPTRGPAQAGGSRSREVQTGGVDIDEGLEDFPPEEELPF”, the “soluble on expression in E. coli” value is “soluble”.
“SNAMKMSELEKMLKGEHFDGASAEIEALRSQAGRLKLEINQSLDEAERYALQRELFGHLGHKSCVQPPFHCEFGKTIRIGDHTFINMNVVMLDGAPITIGDHVLIGPSTQFYTASHSLDYRRRQAWETICKPIVIEDDVWIGGNVVINQGVTIGARSVVAANSVVNQDVPPDTLVGGTPARILRSLKDPAESMAE”: the “soluble on expression in E. coli” value is “soluble”.
Turning to “MGSDKIHHHHHHLTQLAQCSTSSISQSSIYLPYRDGQLHLRQLLPSAPDFSKTPILMLHGAMSNGRVFYSQSGRGLGCFLAKAGFVVYVLDTAGRGLSLPKIDRDSTLGQGEVIREQLPLVQQTILDLHQKACQEQTAQYDRKAVAPSQVHWCAHSWGGVLMASSLARYPELQQSVRSLLTFGSKRTIRVKSFKKWLMVDVFWNRLAPGLAMGQGYLAADKLRIGMDNESRASLVQSIDWVQGDWIDHDDGFDYAKAAKRADWPPAWFISGLNDTVLGHPEDVADMVEECGFKRVKSTLLSKENGFKHDYGHADMLTHLDATSDHFPKISDWYLSFDLAVLNG”, the “soluble on expression in E. coli” value is reported as “not soluble”.
With “SLGSQSSKAPRGDVTAEEAAGASPAKANGQENGHVKSNGDLSPKGEGESPPVNGTDEAAGATGDAIEPAPPSQGAEAKGEVPPKETPKKKKKFSFKKPFKMSGMSFKRNRKEGGGDSSASSPTEEEQEQGEIGACSDEGTAQEGKAAATPESQEPQAKGAEASAASEEEAGPQATEPSTPSGPESGPTPASAEQNE” the entry was “soluble”; with “MSNYTVKIKNSAKSDLKKIKHSYLKKSFLEIVETLKNDPYKITQSFEKLEPKYLERYSRRINHQHRVVYTVDDRNKEVLILSAWSHYD”, “not soluble”.
As for “MADLFDEFIEPGVKNEIMDVEEAPENPMEKLDSAKKRQAREDMTNLLANMHNDVGVGNFDEATSKRARVEEEEEVEEARMENIIVHTIRTDNENCTHEVAIPPNAEFAELRENSGTEPAKYYPFQLDAFQKQAILCIDNNQSVLVSAHTSAGKTVVATYAIAKCLREKQRVIYTSPIKALSNQKYRELEEEFKDVGLMTGDVTLNPDASCLVMTTEILRSMLYRGSEIMKEVGWVVYDEIHYMRDKERGVVWEETIILMSKNIKQAFLSATIPNARQFAQWVASIKQQPVNVVYTDYRPTPLQHWIYPVGGEGMYEVVNVKGEFREDKFRDAMSGLATAGDSAGSFNKRRTGGGTQGDSNVLKIIRSVASNDGLNCIVFSFSRKECESYAISLKDMDFNKDHEKGMVKSVYESAIAQLSPEDQKLPQILNILPLLRRGIGVHHSGLMPILKETIEILFGEGLVKVLFATETFSMGLNMPARTVVFTSARKFDGSDNRYITSGEYIQMAGRAGRRGKDDRGTVILMVDSAMSADDAKQIIKGATDPLNSQFRLTYNMVLNLMRVEGMAVSWIINNSFHQFQSYAKIPEIDKKCVQVERKIASFNFPWENEMRTLVDLQDQLEATRQRIIQIQREPKYIVGFLHAGRLFKVKSGDRDFKWGILNQFKKEQNPDDRNDQIYLCDMMIAINTEGRFDPTNPATLVPGFDLPKRRWIRVPMTIDRITAISAVRLKVPADIDKPDGQMRLDGMMAAATKRFGNQIPLLDPIQDMEIKTVEMKELIAREKSLEGRLETHSMTKRDNMKDLKKQFEQKQDAVKELNALKAERKSVQSTLHLEELNNRKRVLRRLGYLGNDDALVLKGSVACELSASDELILTEMLLKGIFNTLDVAQTAALLSCFVFQDKCAAPKLATELQTCLSELHEQARNVAKVSNECKMEVMEDKYVSSFNPGLMDVVYQWVNGATFSEIVKTTDVFEGSIIRTLRRLEEVLREMINAAKALANKELEQKFEDARKNLKRDIVFAASLYL”, the “soluble on expression in E. coli” value is recorded as “not soluble”.
Take “MLERILSRENLIQALERVEKNKGSYGVDEMDVKSLRLHLHENWTSIRNEIIEGSYFPKPVRRVEIPKPNGGVRKLGIPTVMDRFLQQAIAQILTQLYDPTFSERSFGFRPHRRGHNAVRQAKQWMKEGYRWVVDIDLEKFFDKVNHDRLMRKLSSRIQDPRVLQLIRRYLQTGVMERGLVSPNTEGTPQGGPLSPLLSNIVLDELDNELEKRGLKFVRYADDCNIYVRSKRAGLRIMESVTSFIENRLKLKVNREKSAVDRPWNRKFLGFSFTRGKDPKMRVSKESVKRLKQRIRELTSRRHSMKMSDRLRRLNRYLTGWLGYYQLVDTPSILAQIDAWIRRRLRMIRWKEWKTTSARQKNLVRLGIKKAKAWQWANSRKGYWRVAHSPIMDYALNSEYWKGQGLMSLAERYQTRRWTLEHHHHHH”: the “soluble on expression in E. coli” value is recorded as “not soluble”.
With “MAHHHHHHMIPKESMNVDQSRYETQEGTIVENKLTPFLELTSGEIPMWVKQKYLLSPIDTSKYSDDFYKLGPDDFGKLSGEQVKPDLIKSKLPSSVLHKIWNLADITKDGYLDLFEYSLARHFIEMKTEGFDLPTKVPKDIINSHEY” the entry was “soluble”; with “GSHMIEPNVISVRLFKRKVGGLGFLVKERVSKPPVIISDLIRGGAAEQSGLIQAGDIILAVNDRPLVDLSYDSALEVLRGIASETHVVLILRGPEGFTTHLETTFTGDGTPKTIRVTQPLGPPTKAV”, “soluble”.

The values are drawn from the DeepSol protein solubility set.
